Assay results as given in patent publication US20220259593A1, “CONTROL OF MAMMALIAN GENE DOSAGE USING CRISPR” (The Regents of the University of California, priority 2019, published 2022).
Changes are numbered by the printed parent chain.

B1: cr917 (nucleic acid)
guide: GTTTAAGAGCTAAGCTGGAAACAGCATAGCAAGTTTAAATAAGGTTAATCCGTTATCAACTTGAAAAAGTGGCATCTAGTAGATGCT
modifications: listed as DNA, chemistry not fully specified
B2: cr877 (nucleic acid)
guide: GTTTAAGAGCTAAGCTGGAAACAGCATAGCAAGTTTAAATAAGGCTAGTCCGTTATCAACCTGAAAAGGTGCCACGGAGTCCGTGGT
modifications: listed as DNA, chemistry not fully specified
B3: cr844 (nucleic acid)
guide: B1 guide with T45C, A48G, A59G, T70C, C76T, T77G, A81C, G82A
modifications: listed as DNA, chemistry not fully specified
B4: cr437 (nucleic acid)
guide: B2 guide with C61G, G68C, C72G, G76A, G77C, C81G, C82T, G86C
modifications: listed as DNA, chemistry not fully specified
B5: cr539 (nucleic acid)
guide: GTTTAAGAGCTAAGCTGGAAACAGCATAGCAAGTTTAAATAAGTCTAGTACGTTATCAATTGGAAACAATGGCACCGAGTCGGTGCT
modifications: listed as DNA, chemistry not fully specified
B6: cr885 (nucleic acid)
guide: B2 guide with A31C, C61T, G68A, G71T, C72G, G76C, C82G, G86C
modifications: listed as DNA, chemistry not fully specified
B7: cr017 (nucleic acid)
guide: B2 guide with A6G, C61T, G68A, C72G, G76C, C82G, G86C
modifications: listed as DNA, chemistry not fully specified
B8: cr575 (nucleic acid)
guide: B2 guide with C61T, G68A, C72G, C82G, G86C
modifications: listed as DNA, chemistry not fully specified
B9: cr840 (nucleic acid)
guide: B2 guide with C61T, A65G, G68A, G71A, C72G, G76C, C82G, G86C
modifications: listed as DNA, chemistry not fully specified
B10: cr552 (nucleic acid)
guide: B2 guide with T53A, A55G, T56G, C61T, G68A, C72G, G76C, C82G, G86C
modifications: listed as DNA, chemistry not fully specified
B11: cr658 (nucleic acid)
guide: B5 guide with T44G, C45A, G48T, A50C, G62C, C67G
modifications: listed as DNA, chemistry not fully specified
B12: cr622 (nucleic acid)
guide: B5 guide with T44G, A50C, A59G, T60C, A69G, T70C
modifications: listed as DNA, chemistry not fully specified
B13: cr273 (nucleic acid)
guide: B5 guide with T60C, G62T, A65G, C67A, A69G
modifications: listed as DNA, chemistry not fully specified
B14: cr793 (nucleic acid)
guide: B1 guide with T45C, A48G, T75C, T77G, A81C, A83T
modifications: listed as DNA, chemistry not fully specified
B15: cr117 (nucleic acid)
guide: B2 guide with C61T, A64G, G68A, C72G, G76C, A78G, C82G, G86C
modifications: listed as DNA, chemistry not fully specified
B16: cr001 (nucleic acid)
guide: B2 guide with G1A, C61T, G68A, C72G, G76C, C82G, G86C
modifications: listed as DNA, chemistry not fully specified
B17: cr815 (nucleic acid)
guide: B1 guide with T45C, A48G, T75C, T77G, A81C
modifications: listed as DNA, chemistry not fully specified
B18: cr746 (nucleic acid)
guide: B2 guide with G33A, C61T, A65C, G68A, C72G, G76C, C82G, G86C
modifications: listed as DNA, chemistry not fully specified
B19: cr292 (nucleic acid)
guide: B2 guide with C61T, G68A, G71C, C72G, G76C, C82G, G86C
modifications: listed as DNA, chemistry not fully specified
B20: cr913 (nucleic acid)
guide: B2 guide with T40C, C61T, G68A, C72G, G76C, C82G, G86C
modifications: listed as DNA, chemistry not fully specified
B21: cr549 (nucleic acid)
guide: B2 guide with C72G, G76C, C82G, G86C
modifications: listed as DNA, chemistry not fully specified
B22: cr861 (nucleic acid)
guide: B2 guide with T56G, C61T, G68A, G71A, C72G, G76C, C82G, G86C
modifications: listed as DNA, chemistry not fully specified
B23: cr848 (nucleic acid)
guide: B2 guide with C61T, A65G, G68A, C72G, G76C, A78G, C82G, G86C
modifications: listed as DNA, chemistry not fully specified
B24: cr026 (nucleic acid)
guide: B2 guide with A5G, G7T, C61T, G68A, C72G, G76C, C82G, G86C
modifications: listed as DNA, chemistry not fully specified
B25: cr734 (nucleic acid)
guide: B2 guide with A28C, A55C, C61T, G68A, G71C, C72G, G76C, C82G, G86C
modifications: listed as DNA, chemistry not fully specified
B26: cr133 (nucleic acid)
guide: B2 guide with T46A, T49C, C61T, G68A, C72G, G76C, C82G, G86C
modifications: listed as DNA, chemistry not fully specified
B27: cr293 (nucleic acid)
guide: B1 guide with T45C, A48G, C73G, T75C, T77A, A81T, A83G, G85C
modifications: listed as DNA, chemistry not fully specified
B28: cr501 (nucleic acid)
guide: B2 guide with C61T, A65G, G68A, C72T, G76C, C82G, G86A
modifications: listed as DNA, chemistry not fully specified
B29: cr522 (nucleic acid)
guide: B2 guide with A28T, A55G, C61T, G68A, C72G, G76C, T80C, C82G, G86C
modifications: listed as DNA, chemistry not fully specified
B30: cr279 (nucleic acid)
guide: B2 guide with C61T, G68A, C72G, G76C, T80C, C82G, G86C, T87C
modifications: listed as DNA, chemistry not fully specified
B31: cr596 (nucleic acid)
guide: B2 guide with C61T, G68A, C72G, C73G, G76C, C82G, G86C
modifications: listed as DNA, chemistry not fully specified
B32: cr213 (nucleic acid)
guide: B2 guide with G29A, A42G, C61T, A65G, G68A, C72G, G76C, C82G, G86C
modifications: listed as DNA, chemistry not fully specified
B33: cr679 (nucleic acid)
guide: B2 guide with G29T, T53G, C61T, G68A, C72G, G76C, C82G, G86C
modifications: listed as DNA, chemistry not fully specified
B34: cr406 (nucleic acid)
guide: B2 guide with C57T, C61T, G68A, C72G, G76C, C82G, G86C
modifications: listed as DNA, chemistry not fully specified
B35: cr015 (nucleic acid)
guide: B2 guide with A6C, C61T, G68A, C72G, G76C, C82G, G86C
modifications: listed as DNA, chemistry not fully specified
B36: cr725 (nucleic acid)
guide: B2 guide with G33A, C61T, G68A, C72G, G76C, C82G, G86C
modifications: listed as DNA, chemistry not fully specified
B37: cr962 (nucleic acid)
guide: B1 guide with T45C, A48G, C73G, T75C, T77C, A81G, A83G, G85C
modifications: listed as DNA, chemistry not fully specified
B38: cr667 (nucleic acid)
guide: B5 guide with T34C, T44G, A50C, T60C, G62C, C67G, A69G
modifications: listed as DNA, chemistry not fully specified
B39: cr699 (nucleic acid)
guide: B2 guide with C45G, G48C, C61G, T62C, A67G, G68C, C72G, G76C, C82G, G86C
modifications: listed as DNA, chemistry not fully specified
B40: cr607 (nucleic acid)
guide: B2 guide with C61T, G68A, C72G, G76C, G79A, T80C, C82G, G86C
modifications: listed as DNA, chemistry not fully specified
B41: cr189 (nucleic acid)
guide: B1 guide with T45C, A48G, T75C, T77A, A81C, A83G
modifications: listed as DNA, chemistry not fully specified

Tested on: K562 CRISPRi cells
Assay: Constant region variant library pooled growth screen, K562
Format: cell-based, human
Conditions: sgRNA constant region variants; activity relative to the original, un-modified constant region cr995
Outline: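 Growth screens in K562 CRISPRi cells were harvested 4-8 days post-selection at >2000× library coverage. Each variant's phenotype was referenced to the unmodified constant region with the same targeting sequence.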

Molecule | Mean relative activity
B1 | 0.6521
B2 | 0.686
B3 | 0.6346
B4 | 0.6854
B5 | 0.7135
B6 | 0.6498
B7 | 0.639
B8 | 0.6955
B9 | 0.6688
B10 | 0.6864
B11 | 0.6883
B12 | 1.099
B13 | 0.6725
B14 | 0.6343
B15 | 0.6966
B16 | 0.6312
B17 | 0.6583
B18 | 0.629
B19 | 0.6902
B20 | 0.633
B21 | 1.051

Molecule | Mean relative activity
B22 | 0.6319
B23 | 0.6714
B24 | 0.6314
B25 | 0.6906
B26 | 0.6664
B27 | 1.052
B28 | 1.052
B29 | 0.7084
B30 | 0.6783
B31 | 0.69
B32 | 0.6325
B33 | 0.6292
B34 | 0.6285
B35 | 0.7022
B36 | 0.7094
B37 | 0.6733
B38 | 0.6533
B39 | 0.6628
B40 | 0.6847
B41 | 0.627
